Assay results published in PMC4923858.

Molecular target: T1, TβRII-GFP, P37173
T1 chain: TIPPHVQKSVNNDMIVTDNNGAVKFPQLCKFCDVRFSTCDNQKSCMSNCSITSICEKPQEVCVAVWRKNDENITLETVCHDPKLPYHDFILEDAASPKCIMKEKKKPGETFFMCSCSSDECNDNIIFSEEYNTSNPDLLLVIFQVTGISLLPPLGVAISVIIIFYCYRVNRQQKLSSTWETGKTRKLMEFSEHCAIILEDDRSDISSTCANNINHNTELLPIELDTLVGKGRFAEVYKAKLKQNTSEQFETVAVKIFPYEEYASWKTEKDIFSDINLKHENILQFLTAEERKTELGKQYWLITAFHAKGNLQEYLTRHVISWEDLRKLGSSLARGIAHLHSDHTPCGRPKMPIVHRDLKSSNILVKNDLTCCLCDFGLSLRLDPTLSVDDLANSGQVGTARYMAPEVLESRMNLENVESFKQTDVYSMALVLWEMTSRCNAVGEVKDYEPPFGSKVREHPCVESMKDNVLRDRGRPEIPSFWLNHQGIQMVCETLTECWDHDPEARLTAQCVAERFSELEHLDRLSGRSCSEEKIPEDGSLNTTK
Experiment: single-molecule photobleaching step counting (TIRFM); TβRII-GFP on the membrane of fixed HeLa cells 4 h after transfection; after TGF-β1 10 ng/mL for 15 min at 37 °C; room temperature
Conditions: remark: other sources report otherwise

B1: TβRII-GFP, P37173 23-567 (receptor)
chain: T1 chain
percent of spots bleaching in one step (monomers), after TGF-β1: 67.7%
percent of spots bleaching in three steps, after TGF-β1: 0.6%
percent of spots bleaching in two steps (dimers), after TGF-β1: 31.6%
